B1: REEP5-V5-6xHis (natural protein)
chain: not shown
notes: REEP5 was fused to a V5 tag followed by a 6xHis tag; source: HEK293, transfected, in lysate
B2: endogenous REEP5 (HEK293) (natural protein)
chain: not shown
notes: Receptor expression-enhancing protein 5 (REEP5), endogenous in HEK293 cells; source: endogenous, HEK293 lysate
B3: CnVA-tagged (StrepII-6xHis, 3xFlag) REEP5 (natural protein)
chain: not shown
notes: Receptor expression-enhancing protein 5 (REEP5), human, subcloned from NM_005669.4 into pLD-puro-CnVA; also called CnVA-REEP5; source: HEK293, transfected, in lysate; nickel-His purification
B4: REEP5-EYFP (natural protein)
chain: not shown
notes: Receptor expression-enhancing protein 5 (REEP5), human (NM_005669.4), parent of the EYFP tagged truncation mutants; source: C2C12 myoblasts, transfected, in lysate
B5: Δ1–36 REEP5-EYFP (domain or fragment)
chain: not shown
notes: REEP5, human (NM_005669.4), lacking residues 1-36; source: C2C12 myoblasts, transfected, in lysate

Assays:
[1] = biological target: the molecule itself; experiment: immunoblot of oligomer bands after SDS-PAGE; lysates and nickel-His eluate of transfected HEK293 cells; increasing DTT lowered the dimer band
[2] = biological target: the molecule itself; experiment: immunoblot of oligomer bands after SDS-PAGE; C2C12 myoblasts transfected with EYFP tagged REEP5 and truncation mutants; SDS-resistant dimers

Protein | stoichiometry N [1] | stoichiometry N [2]
B1 | 2 | 
B2 | 2 | 
B3 | 2 | 
B4 |  | 2
B5 |  | 2

From PMC7031342, “REEP5 depletion causes sarco-endoplasmic reticulum vacuolization and cardiac functional defects” (Nature Communications, 2020)
